The target in test [1] is recombinant caseinolytic protease ClpP1 of Leptospira interrogans (L. interrogans serovar Copenhageni, UniProt Q72SG6 1-198). Description: dynamic light scattering.
Test [2] deals with recombinant ClpP1 S98A active-site mutant of Leptospira interrogans (L. interrogans serovar Copenhageni, UniProt Q72SG6 1-198, S98A). The experiment in a line: dynamic light scattering.

Where a chain is given by its changes, count along the chain named. Numbers in names are those of the source.

B1: recombinant ClpP2 S97A active-site mutant of Leptospira interrogans (enzyme, L. interrogans serovar Copenhageni, UniProt Q72R01 1-197, looked up)
chain: MPETEKIAEVFEELTGSKISKNFLDHRKIFLWGPVTDESSKDLVGKLLYLEMKDPGKKITFYINSPGGVVTSGMTVFDTIKMISSPVHTVCMGMAAAMGSVLLAAGTKGERSIWPNGKVMIHQPSIGGQIVAPATDLKIHAEEILKTKTKLNQILADACGHPISKLEEDTDRDYYMDAEEAIKYGIVDKLATKIDFN
In the case of B1, the binding result in test [1] is “binds”.

B2: recombinant caseinolytic protease ClpP2 of Leptospira interrogans (enzyme, L. interrogans serovar Copenhageni, UniProt Q72R01 1-197, looked up)
chain: B1 chain with A97S
Regarding B2, the binding result in test [2] and in test [1] was “binds” in each case.

The values above are taken from article doi:10.1101/2020.08.05.237438 (bioRxiv, 2020).
